This is an account of results in patent US20100322938A1 (COMPUGEN, published 2010).

The target in the test is T1, CGEN-CL1 peptide FYFWMNGDRIDSLLENDRQQT [SEQ ID NO: 1] (human, acetylated at its N-terminus; amidated at its C-terminus).
T1 construct: Made by solid-phase synthesis (Pepscan); molecular weight 2690.1
T1 peptide: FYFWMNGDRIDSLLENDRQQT
Description: SPR competition (BIAcore), peptides preincubated 30 min at 10 uM each, injected over immobilized clusterin. The procedure:
Peptide-protein interaction was analyzed using surface plasmon resonance. Analysis of the interaction between CGEN-CL1 [SEQ ID NO:1] and recombinant human clusterin (Biovendor, Modrice, Czech republic cat no: RD172034100) was conducted using the BIAcore biosensor (Pharmacia Biosensor, Uppsala, Sweden). Clusterin was immobilized directly to a CM5 sensor chip (2000 resonance units (RU)). Solution containing either 10 μM of CGEN-CL1 [SEQ ID NO:1] peptide or a mixture of CGEN-CL1 and its partner helix (SEQ ID NO:5), 10 μM each, preincubated for 30 minutes at room temperature, was injected to the BIAcore. As a background, the solutions were also injected onto an empty flow cell with no immobilized ligand and the binding levels achieved were subtracted. Data was analyzed using BIAevaluation software.
(In SPR one partner is held on a chip, and binding of the other changes the refractive index at the surface.)

B1: partner helix peptide RLTRKYNELLKSYQWKMLNTSS [SEQ ID NO: 5] (peptide)
peptide: Ac-RLTRKYNELLKSYQWKMLNTSS-NH2
notes: Made by solid-phase synthesis (Pepscan); molecular weight 2760.2; also called helix partner; counterpart helix peptide
With B1, the binding result is listed as “binds”.
